This series concerns the target T1, Tat (48-57) peptide (HIV-1).
T1 chain: GRKKRRQRRR

B1: TAR RNA (wild type) (ssRNA)
RNA: GGCAGAUCUGAGCCUGGGAGCUCUCUGCC
Usually Kd stands for the constant that tells how readily two partners part at equilibrium. As to B1, binding was characterised by a dissociation constant (Kd) of 727 nM.

These data come from patent US20030153523, “Methods for identifying RNA binding compounds” (University of Medicine and Dentistry of New Jersey, published 2003).
